Legend:
[1] = target: Human statherin protein (human) (UniProt P02808); experiment: indirect ELISA; coat: sample 5, 3.125 uL saliva/100 uL in urine, diluted 1:40; replicate R2
[2] = target: Human statherin protein (human) (UniProt P02808); experiment: indirect ELISA; coat: A-SB-U (buccal swab stirred in 30 mL urine, individual A) diluted 1:40; replicate R3
[3] = target: Human statherin protein (human) (UniProt P02808); experiment: indirect ELISA; coat: B-SP-U (about 500 uL spit in 30 mL urine, individual B) diluted 1:40; replicate R1
[4] = target: Human statherin protein (human) (UniProt P02808); experiment: indirect ELISA; coat: sample 3, 12.5 uL saliva/100 uL in urine, diluted 1:40; mean minus saliva-free urine blank
[5] = target: Human statherin protein (human) (UniProt P02808); experiment: indirect ELISA; coat: sample 1, 50 uL saliva/100 uL in urine, diluted 1:40; replicate R3
[6] = target: Human statherin protein (human) (UniProt P02808); experiment: indirect ELISA; coat: sample 5, 3.125 uL saliva/100 uL in urine, diluted 1:40; replicate R3
[7] = target: Human statherin protein (human) (UniProt P02808); experiment: indirect ELISA; coat: sample 3, 12.5 uL saliva/100 uL in urine, diluted 1:40; mean of triplicate
[8] = target: Human statherin protein (human) (UniProt P02808); experiment: indirect ELISA; coat: A-Saliva (pure saliva of individual A) diluted 1:40; replicate R1
[9] = target: Human statherin protein (human) (UniProt P02808); experiment: indirect ELISA; coat: sample 2, 25 uL saliva/100 uL in urine, diluted 1:40; replicate R3
[10] = target: Human statherin protein (human) (UniProt P02808); experiment: indirect ELISA; coat: sample 2, 25 uL saliva/100 uL in urine, diluted 1:40; replicate R2
[11] = target: Human statherin protein (human) (UniProt P02808); experiment: indirect ELISA; coat: sample 1, 50 uL saliva/100 uL in urine, diluted 1:40; mean of triplicate
[12] = target: Human statherin protein (human) (UniProt P02808); experiment: indirect ELISA; coat: sample 6, 1.5625 uL saliva/100 uL in urine, diluted 1:40; mean minus saliva-free urine blank
[13] = target: Human statherin protein (human) (UniProt P02808); experiment: indirect ELISA; coat: sample 5, 3.125 uL saliva/100 uL in urine, diluted 1:40; replicate R1
[14] = target: Human statherin protein (human) (UniProt P02808); experiment: indirect ELISA; coat: sample 2, 25 uL saliva/100 uL in urine, diluted 1:40; mean minus saliva-free urine blank
[15] = target: Human statherin protein (human) (UniProt P02808); experiment: indirect ELISA; coat: sample 6, 1.5625 uL saliva/100 uL in urine, diluted 1:40; replicate R2
[16] = target: Human statherin protein (human) (UniProt P02808); experiment: indirect ELISA; coat: B-SP-U (about 500 uL spit in 30 mL urine, individual B) diluted 1:40; replicate R2
[17] = target: Human statherin protein (human) (UniProt P02808); experiment: indirect ELISA; coat: sample 6, 1.5625 uL saliva/100 uL in urine, diluted 1:40; replicate R1
[18] = target: Human statherin protein (human) (UniProt P02808); experiment: indirect ELISA; coat: sample 3, 12.5 uL saliva/100 uL in urine, diluted 1:40; replicate R3
[19] = target: Human statherin protein (human) (UniProt P02808); experiment: indirect ELISA; coat: sample 2, 25 uL saliva/100 uL in urine, diluted 1:40; mean of triplicate
[20] = target: Human statherin protein (human) (UniProt P02808); experiment: indirect ELISA; coat: A-Saliva (pure saliva of individual A) diluted 1:40; mean of triplicate
[21] = target: Human statherin protein (human) (UniProt P02808); experiment: indirect ELISA; coat: B-SP-U (about 500 uL spit in 30 mL urine, individual B) diluted 1:40; replicate R3
[22] = target: Human statherin protein (human) (UniProt P02808); experiment: indirect ELISA; coat: sample 4, 6.25 uL saliva/100 uL in urine, diluted 1:40; mean of triplicate
[23] = target: Human statherin protein (human) (UniProt P02808); experiment: indirect ELISA; coat: A-Saliva (pure saliva of individual A) diluted 1:40; replicate R2
[24] = target: Human statherin protein (human) (UniProt P02808); experiment: indirect ELISA; coat: sample 6, 1.5625 uL saliva/100 uL in urine, diluted 1:40; mean of triplicate
[25] = target: Human statherin protein (human) (UniProt P02808); experiment: indirect ELISA; coat: sample 2, 25 uL saliva/100 uL in urine, diluted 1:40; replicate R1
[26] = target: Human statherin protein (human) (UniProt P02808); experiment: indirect ELISA; coat: B-Saliva (pure saliva of individual B) diluted 1:40; replicate R3
[27] = target: Human statherin protein (human) (UniProt P02808); experiment: indirect ELISA; coat: sample 1, 50 uL saliva/100 uL in urine, diluted 1:40; replicate R1
[28] = target: Human statherin protein (human) (UniProt P02808); experiment: indirect ELISA; coat: sample 5, 3.125 uL saliva/100 uL in urine, diluted 1:40; mean of triplicate
[29] = target: Human statherin protein (human) (UniProt P02808); experiment: indirect ELISA; coat: B-Saliva (pure saliva of individual B) diluted 1:40; mean of triplicate

Sequence of UniProt P02808 (P02808 20-62 limits assumed): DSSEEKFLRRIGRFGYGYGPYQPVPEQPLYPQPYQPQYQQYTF

Which results are given for “Statherin Antibody (N-16), Santa Cruz Biotechnology, Inc. (Catalog No. sc-28112)”?
OD405 [1]: 0.117 OD405; OD405 [2]: 0.291 OD405; OD405 [3]: 0.171 OD405; OD405 Mean - Blank mean [4]: 0.107 OD405; OD405 [5]: 0.144 OD405; OD405 [6]: 0.114 OD405; OD405 Mean [7]: 0.137 OD405; OD405 [8]: 1.21 OD405; OD405 [9]: 0.114 OD405; OD405 [10]: 0.114 OD405; OD405 Mean [11]: 0.155 OD405; OD405 Mean - Blank mean [12]: 0.053 OD405; OD405 [13]: 0.132 OD405; OD405 Mean - Blank mean [14]: 0.095 OD405; OD405 [15]: 0.083 OD405; OD405 [16]: 0.168 OD405; OD405 [17]: 0.091 OD405; OD405 [18]: 0.12 OD405; OD405 Mean [19]: 0.125 OD405; OD405 Mean [20]: 1.22 OD405; OD405 [21]: 0.165 OD405; OD405 Mean [22]: 0.144 OD405; OD405 [23]: 1.22 OD405; OD405 Mean [24]: 0.083 OD405; OD405 [25]: 0.147 OD405; OD405 [26]: 0.394 OD405; OD405 [27]: 0.171 OD405; OD405 Mean [28]: 0.121 OD405; OD405 Mean [29]: 0.336 OD405

Reference: patent US20160145684A1
